Percent of parent data for two substances are collected here from publication PMC8651051.

Some targets named below: CV503_664_GS; CV503_993_EL; CV664_993_GS; CV993_521_GS.
Holding throughout (conditions): N = 1 experiment

Turning to “full-length SARS-CoV-2 spike D614G, expressed on the cell surface (from UniProt P0DTC2) Beta (B.1.351)”, the percent of parent was 202 % of D614G in the assay with CV503_664_GS and 170 % of D614G in the assay with CV503_993_EL.
As for “full-length SARS-CoV-2 spike D614G, expressed on the cell surface (from UniProt P0DTC2) Alpha (B.1.1.7)”, the percent of parent with CV503_664_GS was 236 % of D614G; in the assay with CV503_993_EL it was 214 % of D614G; with CV664_993_GS, 257 % of D614G; with CV993_521_GS, 222 % of D614G.
